Measurements as given in patent US12459997B2, “Compounds and methods targeting interleukin-19” (Eli Lilly and Company, priority 2018, dated 2025).
Substitutions are numbered along the chain they refer to.

T1: recombinant human IL-19 (Homo sapiens, UniProt Q9UHD0)
T1 sequence (Q9UHD0 25-177): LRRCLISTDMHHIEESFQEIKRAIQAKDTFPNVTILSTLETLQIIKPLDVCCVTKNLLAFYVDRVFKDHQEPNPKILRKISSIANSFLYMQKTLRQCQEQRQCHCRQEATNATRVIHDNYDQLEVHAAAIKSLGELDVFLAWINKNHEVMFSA

T2: human IL-19 / human IL-20R beta Fc-fusion protein (Homo sapiens, UniProt Q9UHD0)
T2 sequence (Q9UHD0 25-177): T1 sequence (Q9UHD0 25-177)

B1: R_1: rabbit-derived IL-19 antibody; LCVR SEQ ID NO: 34, HCVR SEQ ID NO: 38 (antibody, V domains shown)
VH: QQLEESGGGLVQPEGSLTLTCTASGFSFSSSYWICWVRQAPGKGLEWLACIDTGVSGDTYYANWAEGRFTISKTSSTTVTLQMTSLTAADTATYFCARDIFGSAIDNSLWGPGTLVTVSS
VL: AIDMTQTPASVSEPVGGTVTIKCQASQSISSYLAWYQQKPGQPPKLLIYSASTLASGVPSRFRGSGSGREFTLTISDLECADAATYYCQCHYHGSSYWDNSFGGGTEVVVK
B2: R_2: rabbit-derived IL-19 antibody; LCVR SEQ ID NO: 42, HCVR SEQ ID NO: 46 (antibody, V domains shown)
VH: B1 VH with E66K
VL: ADVVMTQTPASVEAAVGGTVTIKCQASESIGNALAWYQQKPGQPPKLLIYDASKLASGVPSRFKGSGSGTQFTLTISDLECADAATYYCQCHYHGSSYWDNSFGGGTEVVVK
B3: R_3: rabbit-derived IL-19 antibody; LCVR SEQ ID NO: 50, HCVR SEQ ID NO: 54 (antibody, V domains shown)
VH: QCQSLEESGGGLVEPEGSLTLTCKASGFSFSSSYWICWVRQAPGKGLEWIACTDTFSGDTYYASWAKGRFTISKTSSTTVTLRMTSLTDADTATYFCARDIFGTAVHISLWGPGTLVTVSS
VL: B2 VL with A10S, E28Q, N32S, A33S, P44R, D51G, K54T, Q71E
B4: R_4: rabbit-derived IL-19 antibody; LCVR SEQ ID NO: 58, HCVR SEQ ID NO: 62 (antibody, V domains shown)
VH: QCQSVEESGGRLVTPGTPLTLTCTVSGIDLSIYAMGWVRQAPGKGLEYIGIIDTTGTAYYARWAKGRFTISKTSATVALKITSPTTEDTATYFCARDSGSLYYGSYALWGPGTLVTVSS
VL: ADVVMTQTPSSVSEPVGGTVTIKCQASQSIYSYLSWYQQKPGQPPKLLIYEASKLASGVPSRFKGSGSGTQFTLTISGVECADAATYYCQQGYSSSNVDNTFGGGTEVVVT
B5: M_5: murine-derived IL-19 antibody; LC SEQ ID NO: 312, HC SEQ ID NO: 313 (antibody)
heavy: EVQLQQSGPVLVKPGASVKMSCKASGYPFNDYFLGWVKQSHGKSLEWIGSINPDNDYTMSNQKFKGKATLTVDKSSSTAYMELNSLTSEDSAVYYCARYDYDWAWFAHWGQGTLVTVSAAKTTPPSVYPLAPGSAAQTNSMVTLGCLVKGYFPEPVTVTWNSGSLSSGVHTFPAVLQSDLYTLSSSVTVPSSTWPSETVTCNVAHPASSTKVDKKIVPRDCGCKPCICTVPEVSSVFIFPPKPKDVLTITLTPKVTCVVVDISKDDPEVQFSWFVDDVEVHTAQTQPREEQFNSTFRSVSELPIMHQDWLNGKEFKCRVNSAAFPAPIEKTISKTKGRPKAPQVYTIPPPKEQMAKDKVSLTCMITDFFPEDITVEWQWNGQPAENYKNTQPIMDTDGSYFVYSKLNVQKSNWEAGNTFTCSVLHEGLHNHHTEKSLSHSPGK
light: DIVMTQSPSSLAMSVGQKVTMSCKSSQSLLSSYNQKNYLAWYQRKPGQSPKLLVYFASQRATGVPDRFIGSGSGSDFTLTISSVQAEDLADYFCQQHTRLPITFGAGTKLELKRADAAPTVSIFPPSSEQLTSGGASVVCFLNNFYPKDINVKWKIDGSERQNGVLNSWTDQDSKDSTYSMSSTLTLTKDEYERHNSYTCEATHKTSTSPIVKSFNRNEC
B6: M_1: murine-derived IL-19 antibody; LC SEQ ID NO: 2, HC SEQ ID NO: 6 (antibody)
heavy: EVQLQQSGPVLVKPGASVKMSCKASGYKFTDYFVGWVKQSHGKSLEWIGYVDPENGYTRCNQKFKGKATLTVDKSSSTAYMELNSLTSEDSAVYYCARYDYDWAWFTNWGQGTLVTVSAAKTTPPSVYPLAPGSAAQTNSMVTLGCLVKGYFPEPVTVTWNSGSLSSGVHTFPAVLQSDLYTLSSSVTVPSSTWPSETVTCNVAHPASSTKVDKKIVPRDCGCKPCICTVPEVSSVFIFPPKPKDVLTITLTPKVTCVVVDISKDDPEVQFSWFVDDVEVHTAQTQPREEQFNSTFRSVSELPIMHQDWLNGKEFKCRVNSAAFPAPIEKTISKTKGRPKAPQVYTIPPPKEQMAKDKVSLTCMITDFFPEDITVEWQWNGQPAENYKNTQPIMDTDGSYFVYSKLNVQKSNWEAGNTFTCSVLHEGLHNHHTEKSLSHSPGK
light: B5 light with R44Q, Q59T, A61P, T62P, T98E
B7: M_3: murine-derived IL-19 antibody; LC SEQ ID NO: 18, HC SEQ ID NO: 22 (antibody)
heavy: QIQLVQSGPELKKPGETVKISCKASGYTFTTYGMSWVKQAPGKGLKWMVWINTYSGVPTYVDDFKGRFAFSLETSASTAYLQINNLKNEDTATYFCARRDEGFAYWGQGTLVTVSAAKTTPPSVYPLAPGSAAQTNSMVTLGCLVKGYFPEPVTVTWNSGSLSSGVHTFPAVLQSDLYTLSSSVTVPSSTWPSETVTCNVAHPASSTKVDKKIVPRDCGCKPCICTVPEVSSVFIFPPKPKDVLTITLTPKVTCVVVDISKDDPEVQFSWFVDDVEVHTAQTQPREEQFNSTFRSVSELPIMHQDWLNGKEFKCRVNSAAFPAPIEKTISKTKGRPKAPQVYTIPPPKEQMAKDKVSLTCMITDFFPEDITVEWQWNGQPAENYKNTQPIMDTDGSYFVYSKLNVQKSNWEAGNTFTCSVLHEGLHNHHTEKSLSHSPGK
light: DIKMTQSPSSMYASLGERVTITCKASQDINSYLSWFQQKPGKSPKTLIYRANRLVDGVPSRFSGSGSGQDYSLTISSLEYEDMGIYFCLQYDDFPYTFGGGTKLEIKRADAAPTVSIFPPSSEQLTSGGASVVCFLNNFYPKDINVKWKIDGSERQNGVLNSWTDQDSKDSTYSMSSTLTLTKDEYERHNSYTCEATHKTSTSPIVKSFNRNEC

Experiments:
recombinant human IL-19 [1] = target: T1, recombinant human IL-19; assay: Bio-layer interferometry (BLI) binding kinetics and affinity (Octet Red96); conditions: 25° C.; 1:1 binding model
Procedure: Bio-layer interferometry (BLI) assay, measured with a Octet Red96® instrument available from ForteBio (using HBS-EP+ running buffer (GE Healthcare, 10 mM Hepes pH7.4+150 mM NaCl+3 mM EDTA+0.05% surfactant P20) at 25° C.), is used to measure binding of the exemplified IL-19 antibodies of the present invention to recombinant human IL-19 (having the amino acid sequence set for in SEQ ID NO: 1).
Except as noted, all reagents and materials are from ForteBio (Freemont, Calif.). An AMQ biosensor is used to immobilize antibody of interest for analysis. […] Recombinant human IL-19 is prepared to concentrations of 270, 90, 30, 10, 3.33, 1.11, 0.370, and 0 (blank) nM by dilution into running buffer. Each analysis consists of: (1) capturing antibody samples on biosensors for 300 secs; (2) establishing a baseline by incubating antibody loaded biosensors with running buffer for 60 secs; (3) incubating antibody loaded biosensors with serially diluted recombinant human IL-19 for 300 secs to monitor association phase; (4) return of biosensor to running buffer to monitor dissociation phase.
Binding data is processed using standard double-referencing and fit to a 1:1 binding model using Data Analysis v9.0 evaluation software, to determine the association rate (kon, M^−1 s^−1 units), dissociation rate (koff, s^−1 units), and Rmax (nm units). The equilibrium dissociation constant (KD) was calculated from the relationship KD=koff/kon, and is in molar units.

recombinant human IL-19 [2] = target: T1, recombinant human IL-19; assay: Binning by cross-competition binding assay (Octet Red96)
Source text: Binning experiments involve competing monoclonal antibodies against one another in a pairwise and combinatorial fashion for binding to a specific antigen. A “bin” is a relative concept, based upon the epitope regions represented within the panel of monoclonal antibodies being tested. Two antibodies belong to the same bin if they cannot pair with one another and share the same blocking profile when tested against the other antibodies (or bins of antibodies) in the test panel. Binning of exemplified antibodies of the present invention may be performed by cross-competition binding assays using the Octet Red96®, available from ForteBio, according to manufacturer instruction. Briefly, to determine if two antibodies share overlapping epitope regions, an exemplified antibody is labeled with biotin and captured onto streptavidin sensor tip. The coated biosensor up is then incubated with recombinant human IL-19 to saturate the capture antibody binding sites. The capture antibody-antigen complex is then incubated with a detection antibody. […] Antibodies with a same binding profile are grouped together into the same bin.

[3] = target: T2, human IL-19 / human IL-20R beta Fc-fusion protein; assay: BLI in vitro neutralization: IL-19 captured by antibody, then incubated with IL-20R beta Fc; conditions: block of IL-19 binding to soluble receptor
Source text: Alternatively, a biophysical assay such as bio-layer interferometry (BLI) may be used for assessing neutralization of IL-19 by antibodies of the present invention. Binding between a ligand immobilized on the biosensor tip surface and an analyte in solution produces an increase in optical thickness at the biosensor tip, which results in a wavelength shift (expressed in nm). According to such assay, the IL-19 receptor (i.e., […]) is expressed in a membrane-free manner (such as with an Fc-fusion e.g. IL20Rbeta Fc chimera protein from R&D Systems catalog 1788-IR-050). […] The immobilized antibodies are then incubated with recombinant human IL-19 protein diluted to 100 nM using HBS-EP+ running buffer (GE Healthcare, 10 mM Hepes pH7.4+150 mM NaCl+3 mM EDTA+0.05% surfactant P20) for 240-300 secs. The human IL-19, after binding to the anti-IL-19 antibody, is assessed by incubation with human IL-20R beta Fc-fusion protein for 240-300 secs. The ability of the antibody to block or neutralize binding of the IL-19 ligand to the soluble receptor is observed as a minimal (<0.025 nm) increase in the wavelength during this step of the assay.

recombinant human IL-19 [4] = target: T1, recombinant human IL-19; assay: PathHunter eXpress IL20RA/IL20RB dimerization assay (cell-based neutralization); parameters: host or cells: PathHunter eXpress IL20RA/IL20RB cells (DiscoverX 93-1027E3) carry the receptor partners; conditions: eight experiments
Source text: PathHunter® eXpress IL20RA/IL20RB dimerization assay (DiscoverX product code 93-1027E3) is used to assess ability of exemplified antibodies to prevent binding of human IL-19 recombinant protein in a cell-based assay format. The assay detects ligand induced dimerization of two subunits of a receptor-dimer pair. The cells have been engineered to co-express one receptor subunit fused to enzyme donor and a second dimer partner fused to enzyme acceptor. Binding of an agonist to one receptor subunit induces it to interact with its dimer partner, forcing complementation of the two enzyme fragments resulting in the formation of a functional enzyme that hydrolizes a substrate to generate a chemiluminescent signal. […] Human IL-19 recombinant protein with and without exemplified antibodies mixture is then incubated with cells overnight at 37° C./5% CO2. Substrate buffer is added to cells and incubated at room temperature for 1 hour in the dark before luminescent detection.

Molecule	kon (recombinant human IL-19 [1]) [M⁻¹ s⁻¹]	Binning Group (recombinant human IL-19 [2])	Neutralization [3]	% inhibition +/− SEM (maximum signal inhibition percentage) (recombinant human IL-19 [4])
B1	33300	3	–	–
B2	428000	3	–	–
B3	391000	3	–	–
B4	152000	4	–	–
B5	–	–	Yes (minimal (<0.025 nm) increase in the wavelength)	105.03 +/− 1.38%
B6	–	–	Yes (minimal (<0.025 nm) increase in the wavelength)	98.59 +/− 0.42%
B7	–	–	No	–
